Results as given in patent US7118877.
Where two headings read alike, the source gives them in different places.

Assays:
Ac-IETD-Afc = test system: T1, Ac-IETD-Afc
T1 sequence: IETD

Ac-DEVD-Afc = test system: T2, Ac-DEVD-Afc
T2 sequence: DEVD

Ac-LEHD-Afc [1] = test system: T3, Ac-LEHD-Afc
T3 sequence: LEHD

Ac-VEID-Afc = test system: T4, Ac-VEID-Afc
T4 sequence: VEID

Ac-WEHD-Afc = test system: T5, Ac-WEHD-Afc
T5 sequence: WEHD

Ac-LEHD-Afc [2] = molecular target: T6, Ac-LEHD-Afc
T6 chain: LEHD

Caspase 6
Optimum substrate at pH 7.2 (rate of AFC release, fluorogenic cleavage assay) (Ac-IETD-Afc): Ac-IETD-Afc (SEQ ID NO:2)

Caspase 3
Optimum substrate at pH 7.2 (rate of AFC release, fluorogenic cleavage assay) (Ac-DEVD-Afc): Ac-DEVD-Afc (SEQ ID NO:1)

Caspase 2
Optimum substrate at pH 7.2 (rate of AFC release, fluorogenic cleavage assay) (Ac-LEHD-Afc [1]): Ac-LEHD-Afc (SEQ ID NO:5)

Caspase 10
Optimum substrate at pH 7.2 (rate of AFC release, fluorogenic cleavage assay) (Ac-IETD-Afc): Ac-IETD-Afc (SEQ ID NO:2),
Optimum substrate at pH 7.2 (rate of AFC release, fluorogenic cleavage assay) (Ac-LEHD-Afc [1]): Ac-LEHD-Afc (SEQ ID NO:5)

Caspase 1
Optimum substrate at pH 7.2 (rate of AFC release, fluorogenic cleavage assay) (Ac-LEHD-Afc [1]): Ac-LEHD-Afc (SEQ ID NO:5),
Optimum substrate at pH 7.2 (rate of AFC release, fluorogenic cleavage assay) (Ac-VEID-Afc): Ac-VEID-Afc (SEQ ID NO:6)
Optimum substrate at pH 7.2 (rate of AFC release, fluorogenic cleavage assay) (Ac-WEHD-Afc): Ac-WEHD-Afc (SEQ ID NO:4),

Caspase 7
Optimum substrate at pH 7.2 (rate of AFC release, fluorogenic cleavage assay) (Ac-DEVD-Afc): Ac-DEVD-Afc (SEQ ID NO:1)

Caspase 8
Optimum substrate at pH 7.2 (rate of AFC release, fluorogenic cleavage assay) (Ac-LEHD-Afc [1]): Ac-LEHD-Afc (SEQ ID NO:5

B1: Caspase 9 (protein)
chain: MDEADRRLLRRCRLRLVEELQVDQLWDALLSRELFRPHMIEDIQRAGSGSRRDQARQLIIDLETRGSQALPLFISCLEDTGQDMLASFLRTNRQAAKLSKPTLENLTPVVLRPEIRKPEVLRPETPRPVDIGSGGFGDVGALESLRGNADLAYILSMEPCGHCLIINNVNFCRESGLRTRTGSNIDCEKLRRRFSSLHFMVEVKGDLTAKKMVLALLELAQQDHGALDCCVVVILSHGCQASHLQFPGAVYGTDGCPVSVEKIVNIFNGTSCPSLGGKPKLFFIQACGGEQKDHGFEVASTSPEDESPGSNPEPDATPFQEGLRTFDQLDAISSLPTPSDIFVSYSTFPGFVSWRDPKSGSWYVETLDDIFEQWAHSEDLQSLLLRVANAVSVKGIYKQMPGCFNFLRKKLFFKTS
Optimum substrate at pH 7.2 (rate of AFC release, fluorogenic cleavage assay) (Ac-LEHD-Afc [2]): Ac-LEHD-Afc (SEQ ID NO:5
